target: pre-existing anti-drug antibodies (ADA) present in human sera; assay: ELISA pre-existing ADA binding assay, confirmatory setup, test molecule coated, 20 human sera

| Binder | % positives of total tested serum samples | No of positive serum samples above 30% CCP (serum samples) |
| --- | --- | --- |
| PRO1922 (scFv) scFv: DIQMTQSPSSLSASVGDRVTITCQASESIYSSLAWYQQKPGKAPKLLIYLASTLASGVPSRFSGSGSGTDFTLTISSLQPEDFATYYCQSTDYTTSTHRNSFGTGTKVTVLGGGGGSGGGGSGGGGSGGGGSEVQLVESGGGLVQPGGSLRLSCAASGFSFSTTYYMCWVRQAPGKGLEWIGCTNTASSVRTYYATWAKGRFTISRDNSKNTVYLQMNSLRAEDTAVYYCARDMGFADYALNLWGQGTLVTVSS | 80% | 16 |

target: pre-existing anti-drug antibodies (ADA) present in human sera; assay: ELISA pre-existing ADA binding assay, confirmatory setup, test molecule coated, 40 human sera

| Binder | % positives of total tested serum samples | No of positive serum samples above 31.56% CCP (serum samples) |
| --- | --- | --- |
| PRO2759 (protein) DIQMTQSPASLSASVGDRVTITCQASQSIGTYLAWYQQKPGKPPKLLIYRAFILASGVPSRFSGSGSGTDFTLTISSLQPEDFATYYCQSNFYSDSTTIGPNAFGTGTKVTVLGGGGGSEVQLVESGGGLVQPGGSLRLSCAASGFSFSANYYPCWVRQAPGKGLEWIGCIYGGSSDITYDAQWTKGRFTISRDNSKNTVYLQMNSLRAEDTAVYYCARSAWYSGWGGDLWGQGTLVTVSSGGGGSGGGGSGGGGSGGGGSIQMTQSPSSLSASVGDRVTITCQASQSISNRLAWYQQKPGKAPKLLIYSASTLASGVPSRFSGSGSGTDFTLTISSLQPEDFATYYCQSTYYGNDGNAFGTGTKVTVLGGGGGSEVQLVESGGGRVQPGGSLRLSCAASGFSFNSDYWIYWVRQAPGKGLEWIASIYGGSSGNTQYASWAQGRFTISRDNSKNTVYLQMNSLRAEDTATYFCARGYVDYGGATDLWGQGTQVTVSSGGGGSGGGGSIQMTQSPSSLSASVGDRVTITCQSSESVYSNNQLSWYQQKPGQPPKLLIYDASDLASGVPSRFSGSGSGTDFTLTISSLQPEDFATYYCAGGFSSSSDTAFGGGTKLTVLGGGGGSGGGGSGGGGSGGGGSEVQLVESGGGLVQPGGSLRLSCAASGFSLSSNAMGWVRQAPGKGLEYIGIISVGGFTYYASWAKGRFTISRDNSKNTVYLQMNSLRAEDTATYFCARDRHGGDSSGAFYLWGQGTLVTVSS | 15% | 6 |
| PRO2760 (protein) DIQMTQSPASLSASVGDRVTITCQASQSIGTYLAWYQQKPGKPPKLLIYRAFILASGVPSRFSGSGSGTDFTLTISSLQPEDFATYYCQSNFYSDSTTIGPNAFGTGTKVTVLGGGGGSEVQLVESGGGRVQPGGSLRLSCAASGFSFSANYYPCWVRQAPGKGLEWIGCIYGGSSDITYDAQWTKGRFTISRDNSKNTVYLQMNSLRAEDTATYYCARSAWYSGWGGDLWGQGTQVTVSSGGGGSGGGGSGGGGSGGGGSIQMTQSPSSLSASVGDRVTITCQASQSISNRLAWYQQKPGKAPKLLIYSASTLASGVPSRFSGSGSGTDFTLTISSLQPEDFATYYCQSTYYGNDGNAFGTGTKVTVLGGGGGSEVQLVESGGGLVQPGGSLRLSCAASGFSFNSDYWIYWVRQAPGKGLEWIASIYGGSSGNTQYASWAQGRFTISRDNSKNTVYLQMNSLRAEDTAVYFCARGYVDYGGATDLWGQGTLVTVSSGGGGSGGGGSIQMTQSPSSLSASVGDRVTITCQSSESVYSNNQLSWYQQKPGQPPKLLIYDASDLASGVPSRFSGSGSGTDFTLTISSLQPEDFATYYCAGGFSSSSDTAFGGGTKLTVLGGGGGSGGGGSGGGGSGGGGSEVQLVESGGGLVQPGGSLRLSCAASGFSLSSNAMGWVRQAPGKGLEYIGIISVGGFTYYASWAKGRFTISRDNSKNTVYLQMNSLRAEDTATYFCARDRHGGDSSGAFYLWGQGTLVTVSS | 25% | 10 |

The remaining lines, values ahead:

| % positives of total tested serum samples | No of positive serum samples above 31.56% CCP (serum samples) | Binder |
| --- | --- | --- |
| 2.5% | 1 | PRO2763 (protein) DIQMTQSPASLSASVGDRVTITCQASQSIGTYLAWYQQKPGKPPKLLIYRAFILASGVPSRFSGSGSGTDFTLTISSLQPEDFATYYCQSNFYSDSTTIGPNAFGCGTKVTVLGGGGGSEVQLVESGGGRVQPGGSLRLSCAASGFSFSANYYPCWVRQAPGKGLEWIGCIYGGSSDITYDAQWTKGRFTISRDNSKNTVYLQMNSLRAEDTATYYCARSAWYSGWGGDLWGQGTQVTVSSGGGGSGGGGSGGGGSGGGGSIQMTQSPSSLSASVGDRVTITCQASQSISNRLAWYQQKPGKAPKLLIYSASTLASGVPSRFSGSGSGTDFTLTISSLQPEDFATYYCQSTYYGNDGNAFGTGTKVTVLGGGGGSEVQLVESGGGRVQPGGSLRLSCAASGFSFNSDYWIYWVRQAPGKCLEWIASIYGGSSGNTQYASWAQGRFTISRDNSKNTVYLQMNSLRAEDTATYFCARGYVDYGGATDLWGQGTQVTVSSGGGGSGGGGSIQMTQSPSSLSASVGDRVTITCQSSESVYSNNQLSWYQQKPGQPPKLLIYDASDLASGVPSRFSGSGSGTDFTLTISSLQPEDFATYYCAGGFSSSSDTAFGCGTKLTVLGGGGGSGGGGSGGGGSGGGGSEVQLVESGGGRVQPGGSLRLSCAASGFSLSSNAMGWVRQAPGKCLEYIGIISVGGFTYYASWAKGRFTISRDNSKNTVYLQMNSLRAEDTATYFCARDRHGGDSSGAFYLWGQGTQVTVSS |
| 2.5% | 1 | PRO2765 (protein) DIQMTQSPASLSASVGDRVTITCQASQSIGTYLAWYQQKPGKPPKLLIYRAFILASGVPSRFSGSGSGTDFTLTISSLQPEDFATYYCQSNFYSDSTTIGPNAFGCGTKVTVLGGGGGSEVQLVESGGGRVQPGGSLRLSCAASGFSFSANYYPCWVRQAPGKGLEWIGCIYGGSSDITYDANWTKGRFTISRDNSKNTVYLQMNSLRAEDTATYYCARSAWYSGWGGDLWGQGTQVTVSSGGGGSGGGGSGGGGSGGGGSIQMTQSPSSLSASVGDRVTITCQASQSISNRLAWYQQKPGKAPKLLIYSASTLASGVPSRFSGSGSGTDFTLTISSLQPEDFATYYCQSTYYGNDGNAFGTGTKVTVLGGGGGSEVQLVESGGGRVQPGGSLRLSCAASGFSFNSDYWIYWVRQAPGKCLEWIASIYGGSSGNTQYASWAQGRFTISRDNSKNTVYLQMNSLRAEDTATYFCARGYVDYGGATDLWGQGTQVTVSSGGGGSGGGGSIQMTQSPSSLSASVGDRVTITCQSSESVYSNNQLSWYQQKPGQPPKLLIYDASDLASGVPSRFSGSGSGTDFTLTISSLQPEDFATYYCAGGFSSSSDTAFGCGTKLTVLGGGGGSGGGGSGGGGSGGGGSEVQLVESGGGRVQPGGSLRLSCAASGFSLSSNAMGWVRQAPGKCLEYIGIISVGGFTYYASWAKGRFTISRDNSKNTVYLQMNSLRAEDTATYFCARDRHGGDSSGAFYLWGQGTQVTVSS |
| 7.5% | 3 | PRO2761 (protein) DIQMTQSPASLSASVGDRVTITCQASQSIGTYLAWYQQKPGKPPKLLIYRAFILASGVPSRFSGSGSGTDFTLTISSLQPEDFATYYCQSNFYSDSTTIGPNAFGTGTKVTVLGGGGGSEVQLVESGGGLVQPGGSLRLSCAASGFSFSANYYPCWVRQAPGKGLEWIGCIYGGSSDITYDAQWTKGRFTISRDNSKNTVYLQMNSLRAEDTAVYYCARSAWYSGWGGDLWGQGTLVTVSSGGGGSGGGGSGGGGSGGGGSIQMTQSPSSLSASVGDRVTITCQASQSISNRLAWYQQKPGKAPKLLIYSASTLASGVPSRFSGSGSGTDFTLTISSLQPEDFATYYCQSTYYGNDGNAFGTGTKVTVLGGGGGSEVQLVESGGGLVQPGGSLRLSCAASGFSFNSDYWIYWVRQAPGKGLEWIASIYGGSSGNTQYASWAQGRFTISRDNSKNTVYLQMNSLRAEDTAVYFCARGYVDYGGATDLWGQGTLVTVSSGGGGSGGGGSIQMTQSPSSLSASVGDRVTITCQSSESVYSNNQLSWYQQKPGQPPKLLIYDASDLASGVPSRFSGSGSGTDFTLTISSLQPEDFATYYCAGGFSSSSDTAFGGGTKLTVLGGGGGSGGGGSGGGGSGGGGSEVQLVESGGGRVQPGGSLRLSCAASGFSLSSNAMGWVRQAPGKGLEYIGIISVGGFTYYASWAKGRFTISRDNSKNTVYLQMNSLRAEDTATYFCARDRHGGDSSGAFYLWGQGTQVTVSS |
| 2.5% | 1 | PRO2764 (protein) DIQMTQSPASLSASVGDRVTITCQASQSIGTYLAWYQQKPGKPPKLLIYRAFILASGVPSRFSGSGSGTDFTLTISSLQPEDFATYYCQSNFYSDSTTIGPNAFGCGTKVTVLGGGGGSEVQLVESGGGRVQPGGSLRLSCAASGFSFSANYYPCWVRQAPGKGLEWIGCIYGGSSDITYDANWTKGRFTISRDNSKNTVYLQMNSLRAEDTATYYCARSAWYSGWGGDLWGQGTQVTVSSGGGGSGGGGSGGGGSGGGGSIQMTQSPSSLSASVGDRVTITCQASQSISNRLAWYQQKPGKAPKLLIYSASTLASGVPSRFSGSGSGTDFTLTISSLQPEDFATYYCQSTYYGNDGNAFGTGTKVTVLGGGGGSEVQLVESGGGRVQPGGSLRLSCAASGFSFNSDYWIYWVRQAPGKCLEWIASIYGGSSGNTQYASWAQGRFTISRDNSKNTVYLQMNSLRAEDTATYFCARGYVDYGGATDLWGQGTQVTVSSGGGGSGGGGSIQMTQSPSSLSASVGDRVTITCQSSESVYSNNQLSWYQQKPGQPPKLLIYDASDLASGVPSRFSGSGSGTDFTLTISSLQPEDFATYYCAGGFSSSSDTAFGGGTKLTVLGGGGGSGGGGSGGGGSGGGGSEVQLVESGGGRVQPGGSLRLSCAASGFSLSSNAMGWVRQAPGKGLEYIGIISVGGFTYYASWAKGRFTISRDNSKNTVYLQMNSLRAEDTATYFCARDRHGGDSSGAFYLWGQGTQVTVSS |
| 7.5% | 3 | PRO2762 (protein) DIQMTQSPASLSASVGDRVTITCQASQSIGTYLAWYQQKPGKPPKLLIYRAFILASGVPSRFSGSGSGTDFTLTISSLQPEDFATYYCQSNFYSDSTTIGPNAFGCGTKVTVLGGGGGSEVQLVESGGGRVQPGGSLRLSCAASGFSFSANYYPCWVRQAPGKGLEWIGCIYGGSSDITYDAQWTKGRFTISRDNSKNTVYLQMNSLRAEDTATYYCARSAWYSGWGGDLWGQGTQVTVSSGGGGSGGGGSGGGGSGGGGSIQMTQSPSSLSASVGDRVTITCQASQSISNRLAWYQQKPGKAPKLLIYSASTLASGVPSRFSGSGSGTDFTLTISSLQPEDFATYYCQSTYYGNDGNAFGTGTKVTVLGGGGGSEVQLVESGGGRVQPGGSLRLSCAASGFSFNSDYWIYWVRQAPGKCLEWIASIYGGSSGNTQYASWAQGRFTISRDNSKNTVYLQMNSLRAEDTATYFCARGYVDYGGATDLWGQGTQVTVSSGGGGSGGGGSIQMTQSPSSLSASVGDRVTITCQSSESVYSNNQLSWYQQKPGQPPKLLIYDASDLASGVPSRFSGSGSGTDFTLTISSLQPEDFATYYCAGGFSSSSDTAFGGGTKLTVLGGGGGSGGGGSGGGGSGGGGSEVQLVESGGGRVQPGGSLRLSCAASGFSLSSNAMGWVRQAPGKGLEYIGIISVGGFTYYASWAKGRFTISRDNSKNTVYLQMNSLRAEDTATYFCARDRHGGDSSGAFYLWGQGTQVTVSS |

target: pre-existing anti-drug antibodies (ADA) present in human sera; assay: ELISA pre-existing ADA binding assay, confirmatory setup, test molecule coated, 20 human sera (second row for PRO1922)

| Binder | % positives of total tested serum samples | No of positive serum samples above 30% CCP (serum samples) |
| --- | --- | --- |
| PRO1922 (scFv) scFv: DIQMTQSPSSLSASVGDRVTITCQASESIYSSLAWYQQKPGKAPKLLIYLASTLASGVPSRFSGSGSGTDFTLTISSLQPEDFATYYCQSTDYTTSTHRNSFGTGTKVTVLGGGGGSGGGGSGGGGSGGGGSEVQLVESGGGLVQPGGSLRLSCAASGFSFSTTYYMCWVRQAPGKGLEWIGCTNTASSVRTYYATWAKGRFTISRDNSKNTVYLQMNSLRAEDTAVYYCARDMGFADYALNLWGQGTLVTVSS | 80% | 16 |
